The supplement of paper PMC7877785
± gives the uncertainty stated by the source.

Assay: self-splicing fitness, log relative to wild type (ln ratio); higher = more splicing; Tetrahymena group I intron in knt gene, E. coli kanamycin selection, DiMSum; sequences stand for … in CUCUCU…GGAGGGAAAAGUUAUCAGGCAUGCACCUGGUAGCUAGUCUUUAAACCAAUAGAUUGCAUCGGUUUAAAAGGCAAGACCGUCAAAUUGCGGGAAAGGGGUCAACAGCCGUUCAGUACCAAGUCUCAGGGGAAACUUUGAGAUGGCCUUGCAAAGGGUAUGGUAAUAAGCUGACGGACAUGGUCCUAACCACGCAGCCAAGUCCUAAGUCAACAGAUCUUCUGUUGAUAUGGAUGCAGUUCACAGACUAAAUGUCGGUCGGGGAAGAUGUAUUCUUCUCAUAAGAUAUAGUCGGACCUCUCCUUAAUGGGAGCUAGCGGAUGAAGUGAUGCAACACUGGAGCCGCUGGGAACUAAUUUGUAUGCGAAAGUAUAUUGAUUAGUUUUGGAGUACUCGUGGUCG
In short: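 Colonies from six replicate transformations of E. coli BL21(DE3) were pooled and amplicon-sequenced on an Illumina HiSeq 2500. The library placed an intron with all eight P1ex-region nucleotides randomised inside the knt kanamycin-resistance gene on pET-22b(+), and cells grew overnight at 37°C or 30°C on LB agar with or without 25 μg/mL kanamycin (plus 100 μg/mL carbenicillin, 50 μM IPTG, 0.2% rhamnose). Fitness is the DiMSum error-weighted combination of wild-type-normalised replicate fold changes, kanamycin versus none.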

Row | Sequence | self-splicing fitness (ln) (30 °C) | self-splicing fitness (ln) (37 °C)
1 | CGUCAGCAAUAUUACGUCCU | -1.88 ± 0.081 | -1.27 ± 0.098
2 | CGUCAGCAAUAUUACGUCUU | -2.3 ± 0.14 | -0.743 ± 0.11
3 | CGUCAGCAAUAUUACGUGAU | -2.04 ± 0.1 | -1.18 ± 0.13
4 | CGUCAGCAAUAUUACGUGCA | -0.497 ± 0.057 | -0.0444 ± 0.072
5 | CGUCAGCAAUAUUACGUGCC | -0.61 ± 0.16 | 0.32 ± 0.19
6 | CGUCAGCAAUAUUACGUGUC | -3.72 ± 0.17 | -2.96 ± 0.19
7 | CGUGAGCAAUAUUACGAACA | -0.649 ± 0.15 | -0.766 ± 0.17
8 | CGUGAGCAAUAUUACGACCA |  | -0.768 ± 0.24
9 | CGUGAGCAAUAUUACGACCG | -3.79 ± 0.33 | -1.39 ± 0.27
10 | CGUGAGCAAUAUUACGACGA | -1.92 ± 0.12 | -0.885 ± 0.12
11 | CGUGAGCAAUAUUACGACGG | -0.058 ± 0.098 | 0.525 ± 0.11
12 | CGUGAGCAAUAUUACGAGAA | -3.1 ± 0.34 | -2.08 ± 0.24
13 | CGUGAGCAAUAUUACGAUAG | -1.13 ± 0.1 | -0.217 ± 0.15
14 | CGUGAGCAAUAUUACGAUCC | -2.65 ± 0.25 | -0.358 ± 0.25
15 | CGUGAGCAAUAUUACGAUCU | -0.613 ± 0.088 | -0.995 ± 0.14
16 | CGUGAGCAAUAUUACGAUGU | -1.56 ± 0.16 | -2.29 ± 0.25
17 | CGUGAGCAAUAUUACGCAAG | -2.85 ± 0.15 | -0.853 ± 0.13
18 | CGUGAGCAAUAUUACGCACA | -1.32 ± 0.16 | -0.702 ± 0.18
19 | CGUGAGCAAUAUUACGCCAC | -1.74 ± 0.35 | 
20 | CGUGAGCAAUAUUACGCCCA |  | -2.03 ± 0.46
21 | CGUGAGCAAUAUUACGCGAA | -2.35 ± 0.14 | -3.33 ± 0.29
22 | CGUGAGCAAUAUUACGCGAU | -2.75 ± 0.23 | -1.35 ± 0.24
23 | CGUGAGCAAUAUUACGCUCG | -2.69 ± 0.26 | -2.64 ± 0.24
24 | CGUGAGCAAUAUUACGCUGG | -1.7 ± 0.15 | -1.47 ± 0.18
25 | CGUGAGCAAUAUUACGGAUU | -4.38 ± 0.36 | -3.78 ± 0.46

Row | Sequence | self-splicing fitness (ln) (30 °C) | self-splicing fitness (ln) (37 °C)
26 | CGUGAGCAAUAUUACGGCGG | 0.333 ± 0.089 | 0.466 ± 0.11
27 | CGUGAGCAAUAUUACGGGGG | -2.65 ± 0.29 | -3.28 ± 0.37
28 | CGUGAGCAAUAUUACGGGUA |  | -2.39 ± 0.38
29 | CGUGAGCAAUAUUACGUAAG | -0.896 ± 0.1 | -1.14 ± 0.15
30 | CGUGAGCAAUAUUACGUCGA | -1.75 ± 0.29 | -3.3 ± 0.3
31 | CGUUAGCAAUAUUACGAAAG | -1.11 ± 0.13 | -0.689 ± 0.18
32 | CGUUAGCAAUAUUACGAAGC | -2.28 ± 0.43 | 
33 | CGUUAGCAAUAUUACGAAGG | -1.69 ± 0.1 | -0.895 ± 0.11
34 | CGUUAGCAAUAUUACGACGU | -2.74 ± 0.14 | -2.05 ± 0.16
35 | CGUUAGCAAUAUUACGAGAG | -2.83 ± 0.25 | 0.0196 ± 0.17
36 | CGUUAGCAAUAUUACGAGAU | -2.01 ± 0.23 | -2.33 ± 0.35
37 | CGUUAGCAAUAUUACGAGUA | -3.68 ± 0.37 | -2.67 ± 0.36
38 | CGUUAGCAAUAUUACGAUAU | -3.41 ± 0.14 | -2.22 ± 0.14
39 | CGUUAGCAAUAUUACGAUGU | -2.6 ± 0.26 | -1.78 ± 0.36
40 | CGUUAGCAAUAUUACGCAAA | -2.53 ± 0.36 | -2.67 ± 0.48
41 | CGUUAGCAAUAUUACGCAAU |  | -1.02 ± 0.23
42 | CGUUAGCAAUAUUACGCAUG | -1.13 ± 0.12 | -0.626 ± 0.17
43 | CGUUAGCAAUAUUACGCUCA | -0.383 ± 0.14 | -0.384 ± 0.15
44 | CGUUAGCAAUAUUACGCUGU | -2.88 ± 0.22 | -2.71 ± 0.33
45 | CGUUAGCAAUAUUACGCUUG | -1.71 ± 0.12 | -1.26 ± 0.15
46 | CGUUAGCAAUAUUACGGAAC | -3.05 ± 0.48 | -2.4 ± 0.41
47 | CGUUAGCAAUAUUACGGAUA | -1.83 ± 0.37 | -2.08 ± 0.31
48 | CGUUAGCAAUAUUACGGAUU | -2.33 ± 0.23 | -2.21 ± 0.24
49 | CGUUAGCAAUAUUACGGCGC |  | -2.24 ± 0.32
50 | CGUUAGCAAUAUUACGGGCU | -1.6 ± 0.099 | -1.46 ± 0.16
